For test [1], the target named is HLA-A*02:01 (human MHC I heavy chain ectodomain, amino acids 1-278) refolded with human β2-microglobulin (human). The test is described as follows: fluorescence polarisation. In general terms: Polarisation of emitted light reports the rotation of a fluorescent probe.
In test [2] the target is H2-D^b (mouse MHC I heavy chain ectodomain) refolded with human β2-microglobulin (mouse | human). The test can be described thus: fluorescence polarisation; one-step dissociation, uncatalyzed: 300 nM MHC I loaded with TAMRA-labeled peptide, 1000-fold molar excess (300 µM) of unlabeled competitor peptide, no TAPBPR; 23°C, 1xHBS; one-phase exponential decay.

Ends that are not written are not given here.

For orientation: koff means the rate constant with which the complex falls apart.

Take FLPSDC(TAMRA)FPSF [FLPSDC*FPSF (fluorescently labeled medium-affinity peptide for HLA-A*02:01)]: the koff in test [1] came out at 0.0019 s⁻¹.

In turn, ASNC(TAMRA)NMETM [ASNC*NMETM (fluorescently labeled high-affinity peptide for H2-D^b)] displayed a koff in test [2] of 0.0002 s⁻¹.

In test [2], TQSC(TAMRA)NTQSI [TQSC*NTQSI (fluorescently labeled medium-affinity peptide for H2-D^b)] returned a koff of 0.00253 s⁻¹.

The values are drawn from publication PMC7117912.
